Measured values: patent US20240392002A1 (EXELIXIS, published 2024)

Legend:
[1] = target: T1, ROR1 Ig-like domain (human, UniProt Q01973 42-147); assay: BLI, IgG1 on biosensor, soluble ROR1 domain
T1 construct: also called Acro Cat. No. RO1-H5221
Source text: (§1) To measure binding affinity in ROR binder discovery campaigns, the VL and VH domains identified in the phage screen described above were formatted into a bivalent monospecific native human full-length IgG1 architecture and immobilized to a biosensor on an Octet (Pall ForteBio) biolayer interferometer. Soluble ROR antigens, including the extracellular domains of ROR1 (Acro Cat. No. RO1-H522γ) and ROR2 (Acro Cat. No. R02-H52E5), as well as the individual ROR1 Frizzled (Acro Cat. No. RO1-H5222), Ig-like (Acro Cat. No. RO1-H5221), and Kringle (Acro Cat. No. RO1-H5223) domains, were then added to the system and binding measured.
(§2) ROR binding candidates, formatted in the bivalent monospecific native human full-length IgG1 architecture, were further characterized for binding to ROR1 and/or ROR2. […] ROR binding candidates were also characterized for their binding to specific ROR1 domains.

[2] = target: T2, extracellular domain of human ROR1 (human, UniProt Q01973 30-406); assay: BLI, IgG1 on biosensor, soluble ROR ectodomain
T2 construct: bought protein; biotinylated in the bivalent assay format; also called Acro Cat. No. RO1-H522y
Source text: as §1, §2

[3] = target: T3, extracellular domain of human ROR2 (human, UniProt Q01974 34-403); assay: BLI, IgG1 on biosensor, soluble ROR ectodomain
T3 construct: bought protein; biotinylated in the bivalent assay format; also called Acro Cat. No. RO2-H52E5
Source text: as §1, §2

T2 sequence (Q01973 30-406 limits assumed): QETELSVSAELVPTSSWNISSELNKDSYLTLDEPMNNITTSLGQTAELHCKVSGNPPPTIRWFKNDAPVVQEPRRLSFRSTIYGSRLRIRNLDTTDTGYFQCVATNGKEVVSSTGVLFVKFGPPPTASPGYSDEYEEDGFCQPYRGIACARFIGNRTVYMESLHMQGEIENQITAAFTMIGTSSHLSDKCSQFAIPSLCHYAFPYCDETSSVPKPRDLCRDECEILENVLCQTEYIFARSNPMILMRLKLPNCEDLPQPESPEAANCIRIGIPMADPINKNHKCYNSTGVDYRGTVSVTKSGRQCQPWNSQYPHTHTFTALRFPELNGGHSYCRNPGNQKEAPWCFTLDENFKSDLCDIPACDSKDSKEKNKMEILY
T1 sequence (Q01973 42-147): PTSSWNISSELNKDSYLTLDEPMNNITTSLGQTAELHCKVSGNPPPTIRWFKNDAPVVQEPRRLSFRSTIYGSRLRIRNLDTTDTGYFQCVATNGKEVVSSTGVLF
T3 sequence (Q01974 34-403 limits assumed): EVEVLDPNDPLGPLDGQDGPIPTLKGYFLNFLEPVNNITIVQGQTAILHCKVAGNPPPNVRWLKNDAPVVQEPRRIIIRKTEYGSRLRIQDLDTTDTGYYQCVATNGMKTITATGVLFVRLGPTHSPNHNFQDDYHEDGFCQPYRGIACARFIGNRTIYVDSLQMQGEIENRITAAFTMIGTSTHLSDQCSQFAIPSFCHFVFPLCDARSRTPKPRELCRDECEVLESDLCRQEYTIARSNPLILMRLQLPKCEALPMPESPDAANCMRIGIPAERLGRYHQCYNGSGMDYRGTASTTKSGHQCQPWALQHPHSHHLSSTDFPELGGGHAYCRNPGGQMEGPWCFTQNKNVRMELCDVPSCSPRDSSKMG

Row | Binder | binding result [1] | binding result [2] | binding result [3]
1 | I2C-13 IgG1 (antibody, V domains shown, human IgG1) VH: EVQLVESGGGLVQPGGSLRLSCAASGFTFSSYGIHWVRQAPGKGLEWVAYIHSGIGYTIYADSVKGRFTISADTSKNTAYLQMNSLRAEDTAVYYCARTSSTSTSVMDYWGQGTLVTVSS VL: DIQMTQSPSSLSASVGDRVTITCRASQSVSSAVAWYQQKPGKAPKLLIYSASSLYSGVPSRFSGSRSGTDFTLTISSLQPEDFATYYCQQTYWSPGTFGQGTKVEIK | binds | binds | binds
2 | I2A-12 IgG1 (antibody, V domains shown, human IgG1) VH: EVQLVESGGGLVQPGGSLRLSCAASGFTFTTYYIHWVRQAPGKGLEWVAYISPEDGYTSYADSVKGRFTISADTSKNTAYLQMNSLRAEDTAVYYCARAYYSAVMDYWGQGTLVTVSS VL: DIQMTQSPSSLSASVGDRVTITCRASQSVSSAVAWYQQKPGKAPKLLIYSASSLYSGVPSRFSGSRSGTDFTLTISSLQPEDFATYYCQQSWSPATTFGQGTKVEIK | – | – | no binding
3 | I2A-35 IgG1 (antibody, V domains shown, human IgG1) VH: EVQLVESGGGLVQPGGSLRLSCAASGFTFSAYDIHWVRQAPGKGLEWVAWIDPYGGDTDYADSVKGRFTISADTSKNTAYLQMNSLRAEDTAVYYCARSPSYMQYGGLDYWGQGTLVTVSS VL: DIQMTQSPSSLSASVGDRVTITCRASQSVSSAVAWYQQKPGKAPKLLIYSASSLYSGVPSRFSGSRSGTDFTLTISSLQPEDFATYYCQQYYSSLLTFGQGTKVEIK | binds | – | –
4 | I2C-3 IgG1 (antibody, V domains shown, human IgG1) VH: EVQLVESGGGLVQPGGSLRLSCAASGFTFSHYWIHWVRQAPGKGLEWVALIAPGGDYTSYADSVKGRFTISADTSKNTAYLQMNSLRAEDTAVYYCARSGLPGFDYWGQGTLVTVSS VL: DIQMTQSPSSLSASVGDRVTITCRASQSVSSAVAWYQQKPGKAPKLLIYSASSLYSGVPSRFSGSRSGTDFTLTISSLQPEDFATYYCQQYKSSPLTFGQGTKVEIK | – | no binding | binds
5 | I2A-37 IgG1 (antibody, V domains shown, human IgG1) VH: EVQLVESGGGLVQPGGSLRLSCAASGFTFSWYGIHWVRQAPGKGLEWVAYIDSYTSSTYYADSVKGRFTISADTSKNTAYLQMNSLRAEDTAVYYCARSHFGHYDYVMDYWGQGTLVTVSS VL: DIQMTQSPSSLSASVGDRVTITCRASQSVSSAVAWYQQKPGKAPKLLIYSASSLYSGVPSRFSGSRSGTDFTLTISSLQPEDFATYYCQQAYDQLYTFGQGTKVEIK | – | – | no binding
6 | I2C-19 IgG1 (antibody, V domains shown, human IgG1) VH: EVQLVESGGGLVQPGGSLRLSCAASGFTFTSYDIHWVRQAPGKGLEWVAWIDPGLSYTSYADSVKGRFTISADTSKNTAYLQMNSLRAEDTAVYYCARASIGGGVPVMDYWGQGTLVTVSS VL: DIQMTQSPSSLSASVGDRVTITCRASQSVSSAVAWYQQKPGKAPKLLIYSASSLYSGVPSRFSGSRSGTDFTLTISSLQPEDFATYYCQQYVTGPYTFGQGTKVEIK | – | no binding | binds
7 | I2C-18 IgG1 (antibody, V domains shown, human IgG1) VH: EVQLVESGGGLVQPGGSLRLSCAASGFTFAGYPIHWVRQAPGKGLEWVAAIDPDGGYTYYADSVKGRFTISADTSKNTAYLQMNSLRAEDTAVYYCARHTGFHRYRGMDYWGQGTLVTVSS VL: DIQMTQSPSSLSASVGDRVTITCRASQSVSSAVAWYQQKPGKAPKLLIYSASSLYSGVPSRFSGSRSGTDFTLTISSLQPEDFATYYCQQYYWFPPTFGQGTKVEIK | – | binds | binds
8 | I2C-21 IgG1 (antibody, V domains shown, human IgG1) VH: EVQLVESGGGLVQPGGSLRLSCAASGFTFSSYYIHWVRQAPGKGLEWVAWIDPYISYTYYADSVKGRFTISADTSKNTAYLQMNSLRAEDTAVYYCARDSELVSGYAMDYWGQGTLVTVSS VL: DIQMTQSPSSLSASVGDRVTITCRASQSVSSAVAWYQQKPGKAPKLLIYSASSLYSGVPSRFSGSRSGTDFTLTISSLQPEDFATYYCQQGDSSLVTFGQGTKVEIK | – | no binding | binds
9 | I2C-25 IgG1 (antibody, V domains shown, human IgG1) VH: EVQLVESGGGLVQPGGSLRLSCAASGFTFSDYYIHWVRQAPGKGLEWVAYIAPYGGFTYYADSVKGRFTISADTSKNTAYLQMNSLRAEDTAVYYCARDSYRRGYVSGFDYWGQGTLVTVSS VL: DIQMTQSPSSLSASVGDRVTITCRASQSVSSAVAWYQQKPGKAPKLLIYSASSLYSGVPSRFSGSRSGTDFTLTISSLQPEDFATYYCQQRYSSPSTFGQGTKVEIK | – | no binding | binds
10 | I2A-24 IgG1 (antibody, V domains shown, human IgG1) VH: EVQLVESGGGLVQPGGSLRLSCAASGFTFSTYGIHWVRQAPGKGLEWVAAIYPGTSYTGYADSVKGRFTISADTSKNTAYLQMNSLRAEDTAVYYCAREYFMGMDYWGQGTLVTVSS VL: DIQMTQSPSSLSASVGDRVTITCRASQSVSSAVAWYQQKPGKAPKLLIYSASSLYSGVPSRFSGSRSGTDFTLTISSLQPEDFATYYCQQYYYWPGTFGQGTKVEIK | – | binds | binds
11 | I2C-26 IgG1 (antibody, V domains shown, human IgG1) VH: EVQLVESGGGLVQPGGSLRLSCAASGFTFSDYYIHWVRQAPGKGLEWVADIDSYGGFTYYADSVKGRFTISADTSKNTAYLQMNSLRAEDTAVYYCARDPHFLDDVYVLDYWGQGTLVTVSS VL: DIQMTQSPSSLSASVGDRVTITCRASQSVSSAVAWYQQKPGKAPKLLIYSASSLYSGVPSRFSGSRSGTDFTLTISSLQPEDFATYYCQQYSWGLWTFGQGTKVEIK | – | no binding | binds
12 | I2A-30 IgG1 (antibody, V domains shown, human IgG1) VH: EVQLVESGGGLVQPGGSLRLSCAASGFTFDSYFIHWVRQAPGKGLEWVAYIYSWGSYTHYADSVKGRFTISADTSKNTAYLQMNSLRAEDTAVYYCARGHRRYFALDYWGQGTLVTVSS VL: DIQMTQSPSSLSASVGDRVTITCRASQSVSSAVAWYQQKPGKAPKLLIYSASSLYSGVPSRFSGSRSGTDFTLTISSLQPEDFATYYCQQVYFTPGTFGQGTKVEIK | – | – | no binding

Other lines, results leading:

Row | binding result [1] | binding result [2] | binding result [3] | Binder
13 | – | – | no binding | I2A-33 IgG1 (antibody, V domains shown, human IgG1) VH: EVQLVESGGGLVQPGGSLRLSCAASGFTFDDYYIHWVRQAPGKGLEWVAWIDSYGGYTSYADSVKGRFTISADTSKNTAYLQMNSLRAEDTAVYYCARSSYYYPGGFDYWGQGTLVTVSS VL: DIQMTQSPSSLSASVGDRVTITCRASQSVSSAVAWYQQKPGKAPKLLIYSASSLYSGVPSRFSGSRSGTDFTLTISSLQPEDFATYYCQQWDSTLYTFGQGTKVEIK
14 | – | – | no binding | I2A-8 IgG1 (antibody, V domains shown, human IgG1) VH: EVQLVESGGGLVQPGGSLRLSCAASGFTFYGYYIHWVRQAPGKGLEWVAGIRPGGTYTYYADSVKGRFTISADTSKNTAYLQMNSLRAEDTAVYYCARYRYPAFDYWGQGTLVTVSS VL: DIQMTQSPSSLSASVGDRVTITCRASQSVSSAVAWYQQKPGKAPKLLIYSASSLYSGVPSRFSGSRSGTDFTLTISSLQPEDFATYYCQQRRQHLWTFGQGTKVEIK
15 | – | no binding | binds | I2C-7 IgG1 (antibody, V domains shown, human IgG1) VH: EVQLVESGGGLVQPGGSLRLSCAASGFTFDSYYIHWVRQAPGKGLEWVAWIDPYGLDTKYADSVKGRFTISADTSKNTAYLQMNSLRAEDTAVYYCAREPGDYGMDYWGQGTLVTVSS VL: DIQMTQSPSSLSASVGDRVTITCRASQSVSSAVAWYQQKPGKAPKLLIYSASSLYSGVPSRFSGSRSGTDFTLTISSLQPEDFATYYCQQAYGSLLTFGQGTKVEIK
16 | – | no binding | binds | I2C-5 IgG1 (antibody, V domains shown, human IgG1) VH: EVQLVESGGGLVQPGGSLRLSCAASGFTFSSYDIHWVRQAPGKGLEWVAWIYPYWGYTIYADSVKGRFTISADTSKNTAYLQMNSLRAEDTAVYYCARGTYAPALDYWGQGTLVTVSS VL: DIQMTQSPSSLSASVGDRVTITCRASQSVSSAVAWYQQKPGKAPKLLIYSASSLYSGVPSRFSGSRSGTDFTLTISSLQPEDFATYYCQQFYSYLSTFGQGTKVEIK
17 | binds | binds | binds | I2C-14 IgG1 (antibody, V domains shown, human IgG1) VH: EVQLVESGGGLVQPGGSLRLSCAASGFTFESYDIHWVRQAPGKGLEWVAAIFSYGGYTTYADSVKGRFTISADTSKNTAYLQMNSLRAEDTAVYYCARGSYGDGRGMDYWGQGTLVTVSS VL: DIQMTQSPSSLSASVGDRVTITCRASQSVSSAVAWYQQKPGKAPKLLIYSASSLYSGVPSRFSGSRSGTDFTLTISSLQPEDFATYYCQQYYYWPGTFGQGTKVEIK
18 | – | binds | binds | I2C-22 IgG1 (antibody, V domains shown, human IgG1) VH: EVQLVESGGGLVQPGGSLRLSCAASGFTFSSYSIHWVRQAPGKGLEWVAAIYPYWGTTEYADSVKGRFTISADTSKNTAYLQMNSLRAEDTAVYYCARPSGVTYGYALDYWGQGTLVTVSS VL: DIQMTQSPSSLSASVGDRVTITCRASQSVSSAVAWYQQKPGKAPKLLIYSASSLYSGVPSRFSGSRSGTDFTLTISSLQPEDFATYYCQQYYYSPWTFGQGTKVEIK
